This is an account of results in patent US20240294641A1 (CHILDREN S MEDICAL CENTER, published 2024).

To fix the notation:
B1: M2-3 (antibody, V domains shown)
VH: QGHLVESGGDVVLPGGSLRLSCTESGVDLSDFGIHWVRQTPGKGLEWVALIWYDGSKKFYADSVKDRFTISRDNSKNMVYLEMISLRVEDTAMYFCARGIRRGPWFTYWGPGTLVTVST
VL: EIVLTQSPVILSLSPGERATLSCRASQSISSDLAWFQQTPGQAPRLIIYDASNRATGIPARFSGSGSGTDFTLTISSLEPEDFAVYYCQQRSNWPLTFGGGTKVEIK
notes: Expressed as human IgG4/kappa in 293F or Expi293 cells; also called 397-27-25
B2: M1-1 (antibody, V domains shown)
VH: QVQLVESGGDVVQPGGSLRLSCAASGVAFRDYGMHWVRQAPGKGLEWVAVIWYDGSKKYYGDSVKGRFTVSRDNSKNMLYLEMNGLKAEDTAMYYCARNDDYWGQGTLVTVSS
VL: EIVLTQSPATLSLSPGERATLSCRASQSVSNSLSWYQQNPGQSPRLIIYDTSKRATGIPARFSGSGSGTDFTLTINNLETEDFAVYYCHQRSDWPLTFGGGTKVEIK
notes: Expressed as human IgG4/kappa in 293F or Expi293 cells; retains the CDR H3 of 17D8; also called 319-9-8
B3: M1-7 (antibody, V domains shown)
VH: QLQLVESGGDVVQPGGSLRLSCAASGVVFSDFGLEWVRQAPGKGLEWLAVIWYDGSRKHYADSVKGRFTISRDNSKNMLYLQMNSLRVEDTAMYYCARCHSKEDYWGQGTLVTVSS
VL: EIEVTQSPATLSLSPGERATLSCRASQSIDTDLAWFQQRPGQTPRLIIYDASKRATGIPARFSGGGSGTDFTLTISSLEPEDFAVYYCQQRTTWPLTFGGGTKVEIK
notes: Expressed as human IgG4/kappa in 293F or Expi293 cells; also called 319-9-75
B4: M1-3 (antibody, V domains shown)
VH: QEWLVESGGDVVQPGGSLRLSCATSKVTFNDFGIHWVRQAPGKGLEWVAIIWYDGSRNHYADSVRGRFTLSRDNSKNMVHLHMSSLRTEDTAMYYCARGIHSNDDYWGQGTMVTVSS
VL: EIVLTQSPATLSLSPGERATLSCRTSQSVSSDLAWFQQKPGQAPRLFIFDASKRVNGIPARFSGSGSGTDFTLTISSLEPEDFAVYYCQQRTDWPLTFGGGSRVEIK
notes: Expressed as human IgG4/kappa in 293F or Expi293 cells; also called 319-9-17
B5: M2-4 (antibody, V domains shown)
VH: QVQLVESGGDVVQPGGSLRLSCAASGVAFRNYGMHWVRQAPGKGLEWVAIIWYDGSNKYYADSVKGRFTISRDNSKNMLYLQMNSLRAEDTAMYYCARLSIGTTHYFDTDDYWGQGTSVTVSS
VL: EIVLTQSPATLSLSPGERATLSCRASQSVSSYLAWYQQKVGQAPRLIIFDASNRATGIPARFSGSGSGTDFTLTITSLDPEDFAVYYCQQRSAWPLTFGGGTKVEIR
notes: Expressed as human IgG4/kappa; 6xHis tag at the C-terminus of the Fc for ELISA
B6: M2-5 (antibody, V domains shown)
VH: QVQLVESGGDVVQPGGSLRLSCAASGVVFSDYGLYWVRQAPGKGLEWVALIWYDGSKKFYADSVKGRFSISRDNSKNMLYLQMNNLRADDSAIYYCSRGIRQGPWFAYWGQGTRVTVSP
VL: B1 VL with V9A, I10T, A34T, T39K, A84V, Q89L, N93D
notes: Expressed as human IgG4/kappa in 293F or Expi293 cells; also called 397-27-93
B7: M2-2 (antibody, V domains shown)
VH: QVQLVESGGDVVQPGGSLRLSCSASGLVISDYGMNWVRQAPGKGLEWVGLIWYDGSKKYYSDFVKGRFTISRDNSKNILYLQMNNLRAEDTAMYYCARFLIGATRRGNAMDYWGQGTSVTVSS
VL: B1 VL with I2V, V9A, I10T, S30D, F36S, T39K, A43P, N93D, K107R
notes: Expressed as human IgG4/kappa in 293F or Expi293 cells; also called 397-27-23
B8: M1-4 (antibody, V domains shown)
VH: QVQLVESGGDVVQPGGSLRLSCAVSGVTFGDFGFEWVRQAPGKGLEWVAVIWYDGSRKHYAESVRGRFTISRDNSRNMMYLEMTGLRVEDTAKYYCTRSHSHEDYWGQGTLVTVSS
VL: EIVLTQSPATLSLSPGERATLSCRASQSISNYLAWFQQKSGQAPRLIIHDAFKRAAGIPTRFSGSGSGTDFTLTISSLEPEDFAVYYCQQRDNWPLNFGGGTKVEIK
notes: Expressed as human IgG4/kappa in 293F or Expi293 cells; also called 319-9-27
B9: M1-6 (antibody, V domains shown)
VH: B8 VH with P14S, T28V, G30S, F32Y, E62D, R65Q, S75F, M79L, E82Q
VL: EIVLTQSPATLSLSPGERATLSCGASQNIDNSLAWFQQKPGQAPRLIIYDASKRATGIPARFSGSGSGTDFTLTISTLEPEDFAVYYCQQRDHWPLNFGGGTKVEVK
notes: Expressed as human IgG4/kappa in 293F or Expi293 cells; also called 319-9-53
B10: M1-2 (antibody, V domains shown)
VH: B3 VH with L2V, V28A, F32Y, L34M, M78I, V88A, E103D
VL: B3 VL with E3V, V4L, S7F, A25T, S28N, T31S, R39K, T43A, K53N, S76T
notes: Expressed as human IgG4/kappa in 293F or Expi293 cells; also called 319-9-15
B11: 17D8 antibody (antibody, V domains shown)
VH: B2 VH with R30S, D31N, K57N, G61A, V70I, E82Q, G85S, K87R
VL: B5 VL with V40P, F49Y, T76S, D79E, A93N, R107K
notes: Prototype anti-PD1 antibody (U.S. Pat. No. 8,008,449 B2); Produced as human IgG4/kappa; His-tagged for ELISA, untagged for Biacore
B12: M2-1 (antibody, human IgG4, V domains shown)
VH: B7 VH with I29F, S30R, S56T, I78M, M93I, T120I
VL: B1 VL with I2V, V9A, I10T, S30D, F36S, T39K, P40T, A43P, N93D, K107R
notes: Expressed as human IgG4/kappa; without His tag and Protein A purified for Biacore; also called 397-27-3
B13: M1-5 (antibody, human IgG4, V domains shown)
VH: QVQLVESGGDVVQPGGSLRLSCTVSGAVFRDLGMEWVRQAPGKGLEWLAVIWYDGGRKHYADSVKGRFTISRDNSRNMLFLQMNGLRVDDTAMYYCTRSHSTDDYWGQGTLVTVSS
VL: B8 VL with L13V, N31S, Y32D, S40P, D50G, F52S, A56T, T60A, N93S
notes: Expressed as human IgG4/kappa; without His tag and Protein A purified for Biacore; also called 319-9-34

Substitutions are numbered along the chain they refer to.

The term Kd denotes a measure of binding affinity in units of concentration. By koff is commonly meant the first-order rate constant of dissociation. Low readings indicate a long-lived complex, high ones a short-lived complex. Usually kon stands for the second-order rate constant of association. A higher kon goes with fast association.

T1 sequence (Q15116 25-170): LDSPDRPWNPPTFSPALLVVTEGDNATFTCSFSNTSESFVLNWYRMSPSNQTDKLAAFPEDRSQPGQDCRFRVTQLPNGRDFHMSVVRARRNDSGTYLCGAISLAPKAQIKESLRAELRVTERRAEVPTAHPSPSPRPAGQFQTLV

The first test concerns the target T1, PD1 extracellular domain, without fusion to other proteins (human, UniProt Q15116 25-170).
T1 construct: extracellular domain; also called unfused PD1; monomeric PD1
The test can be described thus: ELISA, plate coated with PD1 extracellular domain without Fc fusion, OD405. For orientation: In an ELISA, binding on a coated surface is turned into a signal by an enzyme label.
From the text: (§1) ELISA was used to compare the PD1 binding activities of the new and previous anti-PD1 antibodies. The ELISA coating antigen was a recombinant protein of the extracellular domain of PD1, without fusion to other proteins so that the ELISA measured binding activities specific to PD1.
In this ELISA experiment, PD1 extracellular domain, without Fc fusion, was coated on the ELISA plate.
Turning to B1, the binding result was “binds”.
Still for that read-out and setting: the result for B2 reads “binds”; that for B3, “binds”.

The target of another test is T2, full-length human PD1 expressed on NS1 cells (PD1-NS1) (human, UniProt Q15116 25-288).
T2 construct: whole, on cells; also called surface-expressed PD1; PD1 expressing cell line
T2 sequence (Q15116 25-288): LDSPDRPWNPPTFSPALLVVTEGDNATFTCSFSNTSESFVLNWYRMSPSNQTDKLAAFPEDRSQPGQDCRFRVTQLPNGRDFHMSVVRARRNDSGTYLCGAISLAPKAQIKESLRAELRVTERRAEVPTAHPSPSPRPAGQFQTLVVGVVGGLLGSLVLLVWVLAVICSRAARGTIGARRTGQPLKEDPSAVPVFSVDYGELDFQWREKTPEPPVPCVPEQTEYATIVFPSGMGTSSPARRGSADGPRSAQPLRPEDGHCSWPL
The test can be described thus: FACS on PD1-NS1 cells, PE-anti-human kappa.
Consider B4, for which the binding result is “binds”.
The same measure, in the same setting: the result for B5 reads “binds”.
B6: the binding result is “binds”.
The same measure, in the same setting: the result for B7 reads “binds”; that for B8, “binds”; that for B9, “binds”.
On to B10, for which the binding result is given as “binds”.

The target in a further test is T1, PD1 extracellular domain, without …. The test can be described thus: Biacore (SPR), antibody immobilized on the sensor chip, PD1 extracellular domain in flow. For orientation: SPR reads the build-up and loss of mass on a sensor chip optically.
Method: In this assay, antibodies were immobilized on sensor chips, and PD1 extracellular domain, the same protein used in the ELISA experiment in FIG. 5C, flowed through sensor chip. The kinetics of PD1/antibody interaction was measured in real time. The table lists the association rate constant (kₐ), dissociation rate constant (kd) and equilibrium dissociation constant (KD) for each antibody.
Biacore analysis of the kinetics of the interaction between anti-PD1 antibodies and PD1 was performed by Affina Biotechnologies. Given the quantitative and sensitive nature of the assay, non-physiological modifications of the antibodies and PD1 were minimized. […] The PD1-Fc fusion protein contains a TEV protease cleavage site. After TEV digest, the PD1 portion was separated from the Fc region. […] However, in the context of the PD-Fc fusion, PD1 is dimerized through the Fc region and may engage in bivalent interactions with IgG antibodies. The avidity effect can cause major deviations from the actual binding affinity between monomeric PD1 and single antigen-binding site. Separation of PD1 from the Fc portion prevented this error. In the biacore assay, the antibodies were immobilized on sensor chips and PD1 was passed over the immobilized antibodies. Association and dissociation of antibodies and PD1 were detected in real time.
B11 registered a Kd of 3.4 nM, a koff of 0.0013 s⁻¹ and a kon of 387000 M⁻¹ s⁻¹.
In the same order, the values of B12 are 3.7 nM, 0.00074 s⁻¹ and 199000 M⁻¹ s⁻¹.
Taken in the same sequence, the figures for B13 were 2.1 nM, 0.0021 s⁻¹ and 995000 M⁻¹ s⁻¹.

A further test addresses T2, full-length human PD1 expressed on NS1 …. The test can be described thus: FACS on PD1-NS1 cells, PE-anti-human kappa. The source holds these as a separate data set.
Method: To test the binding of anti-PD1 antibodies to surface expressed PD1, full-length human PD1 in mouse plasmacytoma cell line, NS1, was expressed. […] A construct that expresses the full length human PD1 was transfected into NS1 cells, and clones with stable integration of the expression construct were obtained. […] For the FACS analysis in FIG. 5B, the PD1-NS1 cells were incubated with anti-PD1 antibodies. […] The FACS staining reaction was analyzed on Attune NXT FACS machine, and the data were plotted with FlowJo 10 software.
In the case of B1, the binding result is listed as “binds”.
On to B2, for which the binding result is “binds”.
On the same count and under the same terms, next, B3: “binds”.

The next test concerns the target T1, PD1 extracellular domain, without …. The experiment in a line: ELISA, plate coated with PD1 extracellular domain without Fc fusion, OD405. This is another data set of the same source.
From the text: as §1
Turning to B4, the binding result is “binds”.
On the same count and under the same terms, the result for B5 reads “binds”.
Still for that read-out and setting: the result for B6 reads “binds”; that for B7, “binds”; that for B8, “binds”.
The same measure, in the same setting: next, B9: “binds”.
Consider B10, for which the binding result is listed as “binds”.
